In article PMC11697773:

How the values were obtained:
[1] = target: human neonatal Fc receptor (FcRn) (human) (UniProt P55899); experiment: BLI; Octet; biotinylated human FcRn on streptavidin-coated biosensors, antibody soluble; equilibrium binding; PBSA pH 5.6; tips regenerated in PBSA pH 7.4
[2] = target: human Fcγ receptor I (FcγRI) (human) (UniProt P12314); experiment: BLI; Octet; biotinylated human FcγRI on streptavidin-coated biosensors, antibody soluble; equilibrium binding; PBSA pH 7.4; tips regenerated in 0.1 M glycine pH 3.5
Chain of human Fcγ receptor I (FcγRI) (human) (P12314 16-292): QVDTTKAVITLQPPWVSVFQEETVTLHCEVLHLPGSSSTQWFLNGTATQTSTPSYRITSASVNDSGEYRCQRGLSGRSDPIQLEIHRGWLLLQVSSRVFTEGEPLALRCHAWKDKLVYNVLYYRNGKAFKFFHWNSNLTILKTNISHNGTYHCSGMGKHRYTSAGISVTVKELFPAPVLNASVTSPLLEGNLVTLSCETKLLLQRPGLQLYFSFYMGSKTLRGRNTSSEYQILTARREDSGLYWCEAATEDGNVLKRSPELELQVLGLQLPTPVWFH

| Substance | Kd [1] | Kd [2] |
| --- | --- | --- |
| F5111 antibody, N297A | 132 nM | 105 nM |
| trastuzumab N297G + YTE + SEFL (aglycosylated variant) (antibody) | 20.4 nM |  |
